According to patent US20080166293A1 (UAB RESEARCH FOUNDATION, published 2008):

Key:
[1] = biological target: T1, human transferrin receptor (hTfR) (human, UniProt P02786 1-760); assay: synthetic peptide added to CEF+hTfR cells before HAIYPRH phage; titer of bound phage
T1 construct: whole, on cells; Always presented on CEF+hTfR cells; also called CEF+hTfR cells
Procedure: (§1) Binding and Competition Studies: Purified phage populations were amplified and were verified to be homogenous through DNA sequencing. Cells were prepared for binding as was described for biopanning procedures. Preparations of plaque-purified and titered phage (1×10¹¹) were incubated in serum-free Opti-MEM on either CEF or CEF+hTfR cells at 4° C. for 1 hour. The cells were washed repeatedly with Opti-MEM and bound phage were eluted with low pH buffer and subsequently titered. […] Multiple trials were completed and average titers and standard deviations determined. The titers determined on CEF+hTfR cells were divided by the titers determined on CEF cells and […] fold over control data points.

[2] = biological target: T1, human transferrin receptor (hTfR); assay: synthetic peptide added to CEF+hTfR cells before … phage; titer of bound phage
Procedure: as §1

T1 sequence (P02786 whole entry): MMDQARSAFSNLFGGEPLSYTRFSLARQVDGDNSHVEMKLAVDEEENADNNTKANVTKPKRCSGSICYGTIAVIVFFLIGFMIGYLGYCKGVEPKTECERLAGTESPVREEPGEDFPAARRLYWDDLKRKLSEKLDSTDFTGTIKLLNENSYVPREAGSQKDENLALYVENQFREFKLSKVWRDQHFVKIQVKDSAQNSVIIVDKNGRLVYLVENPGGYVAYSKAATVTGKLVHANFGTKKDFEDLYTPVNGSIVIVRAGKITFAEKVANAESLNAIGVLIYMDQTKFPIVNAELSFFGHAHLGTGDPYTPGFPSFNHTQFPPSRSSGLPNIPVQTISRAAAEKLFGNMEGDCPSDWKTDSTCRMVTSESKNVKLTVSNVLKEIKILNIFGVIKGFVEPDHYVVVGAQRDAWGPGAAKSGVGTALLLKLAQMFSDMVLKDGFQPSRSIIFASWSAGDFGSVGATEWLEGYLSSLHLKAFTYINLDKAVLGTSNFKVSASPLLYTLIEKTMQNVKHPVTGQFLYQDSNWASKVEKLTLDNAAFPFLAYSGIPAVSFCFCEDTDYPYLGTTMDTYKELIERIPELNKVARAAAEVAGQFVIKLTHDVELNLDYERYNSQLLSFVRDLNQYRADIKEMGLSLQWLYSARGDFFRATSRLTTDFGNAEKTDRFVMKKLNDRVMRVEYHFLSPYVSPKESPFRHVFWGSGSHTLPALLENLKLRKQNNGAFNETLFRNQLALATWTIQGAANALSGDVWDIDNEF

| binding result [1] | binding result [2] | Binder |
| --- | --- | --- |
| binds |  | HAIYPRH (Synthetic peptide, HPLC purified; also called 7-mer) [HAIYPRH (Seq. ID No. 1) peptide] |
|  | binds | THRPPMWSPVWP (Synthetic peptide, HPLC purified; also called 12-mer) [THRPPMWSPVWP (Seq. ID No. 2) peptide] |
